The test system of one data set is Raji. Briefly: ADCC activity in vitro (CytoTox 96 LDH assay), positive control cell line Raji. The note with it: effector normal human PBMC, E:T=100:1, 2.5 ug/mL, 4 hours. It counts as cell-based.
The subject of the next data set is EOL-1. As to the kind of experiment: EOL-1 cell growth with human FLT3 ligand and antibody (Cell Titer Glo, 5 days). In kind it is cell-based. The settings on record: 50, 10 or 5 ng/mL, no antibody. The procedure:
The ability of FLT3 antibodies (CHv62.21 and v62-1b37.1) to mediate the effect of human FLT3 ligand was evaluated using the human leukemia EOL-1 cell line, which endogenously expresses FLT3. Isotype control antibody (mLys-1c3.1) was also used. […] The next day, cells were treated with 50, 10 or 5 ng/mL of human FLT3 ligand (in 25 μl of complete media) and 10, 1, 0.1 and 0 μg/mL of test antibody (in 25 μl of complete media). Media alone was used as the untreated control. […] At the end of the incubation period, 100 μl of Cell Titer Glo was added to each well and incubated for 30 minutes, shaking, at room temperature.
Background: ATP-based viability assays read luminescence as a measure of living cells.

For the next data set, the target named is Flt3 protein (Homo sapiens, UniProt P36888). As to the kind of experiment: Binding of hybridoma MAb to Flt3 protein and Flt3 expressing cells. The settings on record: recombinant and endogenous cells. The source says: MAbs to FLT3 were generated using VelocImmune® technology (Regeneron, Tarrytown, N.Y.) wherein genetically engineered mice make antibodies that have fully human variable regions and mouse constant regions. The MAb designated v62-1b21 (also known as AGS62.21) was generated after immunizing VelocImmune® mice with recombinant human FLT3 protein.

The subject of another data set is RS-4-11. It counts as cell-based, human.

Protocol for RS-4-11: Briefly, The RS-4-11 cells were seeded in 50 μl of complete media at a density of 3000 cells per well onto 96 well plates and placed in a tissue culture incubator at 37° C.; 5% CO2. The next day, the ADCs were prepared in complete media at 10 μg/mL and serially diluted 1:5 for a total of 9 points. […] At the end of the incubation period, 20 μl of Presto Blue was added to each well and incubated for 2 hours. The plates were read using a BioTek Synergy H4 plate reader using 540 Excitation and 590 Emission wavelengths and graphed using Graphpad Prism software.

For the molecule Rituximab, the ADCC activity entry in the data set with Raji was “confirms ADCC activity”.

B1: Human FLT3 ligand: human FLT3 ligand, purchased from R and D Systems (protein)
chain: TQDCSFQHSPISSDFAVKIRELSDYLLQDYPVTVASNLQDEELCGGLWRLVLAQRWMERLKTVAGSKMQGLLERVNTEIHFVTKCAFQPPPSCLRFVQTNISRLLQETSEQLVALKPWITRQNFSRCLELQCQPDSSTLPPPWSPRPLEATAPTAPQPP
On to B1, for which the “effect of human FLT3 ligand alone on growth of EOL-1 cells” value in the data set with EOL-1 is on record as “has no effect on growth”.

B2: v62-1b21: hybridoma FLT3 MAb from VelocImmune mice, fully human variable regions and mouse constant regions (antibody, V domains shown)
VH: EVQLVESGGGLVRPGGSLRLSCAASGFTFSGYSINWVRQAPGKGLEWVSSISSSSNYIYYADSVKGRFTISRDNAKNSLYLQMNSLRAEDTAVYYCAREGFIAGTTFDAFDIWGQGTMVTVSS
VL: DIQMTQSPSSLSASVGDRVTITCRASQGIRNDLGWYQQKPGKAPKRLIYAASSLQSGVPSRFSGSGSGTEFTLTISSLQPEDFATYYCLQHNGFPYTFGQGTKLEIKR
As to B2, the “binding to Flt3 protein and Flt3 expressing cells” value with Flt3 protein is “specifically binds to Flt3 protein and Flt3 expressing cells”.

B3: v62-1b21.1-AGL-0129-08 (conjugate)
VH: EVQLVESGGGLVRPGGSLRLSCAASGFTFSGYSINWVRQAPGKGLEWVSSISSSSNYIYYADSVKGRFTISRDNAKNSLYLQMNSLRAEDTAVYYCAREGFIAGTTFDAFDIWGQGTMVTVSS
VL: DIQMTQSPSSLSASVGDRVTITCRASQGIRNDLGWYQQKPGKAPKRLIYAASSLQSGVPSRFSGSGSGTEFTLTISSLQPEDFATYYCLQHNGFPYTFGQGTKLEIKR
For the molecule B3, the cytotoxicity result in the data set with RS-4-11 is “can induce cytotoxicity”.

Values taken from patent US10751422B2, “Antibody drug conjugates (ADC) that bind to FLT3 proteins” (AGENSYS, INC., priority 2015, dated 2020).
